{"source": "patent US20220204643A1", "about": "(published 2022)", "binders": {"B1": {"name": "THNS1004 (antibody, V domains shown)", "VH": "EVQLVESGGGLVQPGGSLRLSCAASGFTFSSNWMSWVRQAPGKGLEWVANIKEDGSEKYYVDSVKGRFTIFRDNAKNSLYLQMNSLRAEDTAVYYCARVPSRYGRSRGAFDIWGQGTMVTVSS", "VL": "DIQMTQSPSSLSASVGDRVTITCRASQSISSYLNWYQQKPGKAPKLLIYAASSLQSGVPSRFSGSGSGTDFTLAISSLQPEDFATYYCHQTYSTRLTFGGGTEVEIKR", "notes": "VH/VL only"}, "B2": {"name": "THNS1003 (antibody, V domains shown)", "VH": "VVQLVESGGGLVQPGGSLRLSCAASGFTFNNYEMNWVRQAPGKGLEWVSYISSSGSTIYYADSVKGRFTISRDNAKNSLYLQMNSLRAEDTAVYYCARQMVTTRGYWGQGTLVTVSS", "VL": "not shown", "notes": "VH/VL only"}, "B3": {"name": "TBLA1007 (antibody, V domains shown)", "VH": "QVQLVQSGAEVKKPGASVKVSCKASGYTFTNYGFSWVRQAPGQGLEWMGRITTYNRDTIYAQKFQGRVTMTTDTSTSTAYMELRSLRSDDTAVYFCARVVPGDSVYGAFDIWGQGTMVTVSS", "VL": "DIQMTQSPSSLSASVGDRVTITCRASQSISSYLNWYQQKPGRAPRLLIYAASRLQIGVPSRFSGSGSGTDFTLTISSLQPEDFATYYCQQSYRMPCSFGQGTKLEI", "notes": "VH/VL only"}, "B4": {"name": "THNS1006 (antibody, V domains shown)", "VH": "QVQLVESGGGVVQPGRSLRLSCAASGFTFSSYGMHWVRQAPGKGLEWVAIISYDGSNKYYADSVKGRFTISRDKSKNTLYLQMNSLRAEDTAVYYCAKSKGNYRDAMDVWGQGTTVTVSS", "VL": "SYVLTQPPSVSVAPGQTARITCGGNNIGSKSVHWYQQKPGQAPVLVVYDDSDRPSGIPERFSGSNSGNTATLTISRVEAGDEADYYCQVWDSSSDPWVFGGGTKLTVLG", "notes": "VH/VL only"}, "B5": {"name": "THNS1014 (antibody, V domains shown)", "VH": "HVQLLQSGPGLVKPSQTLSLTCAISGDSVSSTSGAWNWIRQSPSRGLEWLGRTYYRSQWMNDYAESVRSRITINPDTSKNQFSLQLKSVTPEDTAVYYCTRGWAFTSSDWGQGTQVTVSS", "VL": "EIVLTQSPGTLSLSPGERATLSCRASQSFDGKSLAWYQQKPGQTPRLLVYGASSRATGIPDRFGGSGSGTDFTLTISRLESEDFAVYFCQQYAYVPITFGQGTRLERKR", "notes": "VH/VL only"}, "B6": {"name": "TKIC1006 (antibody, V domains shown)", "VH": "QVQLVQSGAEVKKPGSSVKVSCKTSGGTFSSYTISWVRQAPGQGPEWMGRIIPILNITNYAQKFQGRVTITADKSTSTTYMEMGSLRSEDTAVYFCARSFYGSGLQWGQGTLVTVSS", "VL": "EIVLTQSPGTLSLSPGERATLSCRASQSVSSSYLVWYQQKAGQAPRLLIYGASSRATGISDRFSGSGSGTDFTLTISRLEPEDFAVYYCQHFRSSPPTYTFGQGTKLEIKR", "notes": "VH/VL tied via antigen in summary, not by name in this stretch"}}, "test_in_all_cases": "protein array", "key": {"[1]": {"target": "T1, RNA binding motif protein 47, transcript variant X10 (human, UniProt A0AV96 1-593)", "T1 construct": "on protein array; also called RBM47", "T1 sequence": "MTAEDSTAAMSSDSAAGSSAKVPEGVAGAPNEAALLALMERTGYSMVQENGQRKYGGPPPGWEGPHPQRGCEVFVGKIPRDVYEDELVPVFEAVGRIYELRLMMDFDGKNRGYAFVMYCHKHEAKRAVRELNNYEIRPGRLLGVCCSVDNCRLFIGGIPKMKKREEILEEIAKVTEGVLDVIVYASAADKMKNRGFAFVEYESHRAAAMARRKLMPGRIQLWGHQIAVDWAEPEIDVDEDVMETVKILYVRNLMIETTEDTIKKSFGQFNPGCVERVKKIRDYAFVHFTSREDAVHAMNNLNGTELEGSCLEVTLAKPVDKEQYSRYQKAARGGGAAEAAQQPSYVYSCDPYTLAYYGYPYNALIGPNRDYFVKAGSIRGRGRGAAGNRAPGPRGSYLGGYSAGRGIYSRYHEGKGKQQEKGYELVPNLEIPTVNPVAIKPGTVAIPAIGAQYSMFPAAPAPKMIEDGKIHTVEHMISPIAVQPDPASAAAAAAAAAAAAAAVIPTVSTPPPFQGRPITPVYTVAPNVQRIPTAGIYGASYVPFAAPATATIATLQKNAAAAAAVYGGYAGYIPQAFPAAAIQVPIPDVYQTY"}, "[2]": {"target": "T2, NCCRP1, F-box associated domain containing (human, UniProt Q6ZVX7 1-275)", "T2 construct": "on protein array", "T2 sequence": "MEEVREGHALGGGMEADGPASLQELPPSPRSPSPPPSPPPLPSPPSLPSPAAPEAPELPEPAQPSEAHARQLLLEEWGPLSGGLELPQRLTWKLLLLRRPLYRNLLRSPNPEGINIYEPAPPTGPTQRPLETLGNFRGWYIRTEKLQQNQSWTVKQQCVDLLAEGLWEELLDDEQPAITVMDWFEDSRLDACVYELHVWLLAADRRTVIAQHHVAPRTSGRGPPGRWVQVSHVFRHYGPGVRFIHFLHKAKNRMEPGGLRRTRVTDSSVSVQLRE"}, "[3]": {"target": "T3, coiled-coil domain containing 102A, transcript variant X1 (human, UniProt Q96A19 1-550)", "T3 construct": "on protein array; also called CCDC102A", "T3 sequence (Q96A19 other isoform, or with tags, fused parts or gaps mutant limits assumed)": "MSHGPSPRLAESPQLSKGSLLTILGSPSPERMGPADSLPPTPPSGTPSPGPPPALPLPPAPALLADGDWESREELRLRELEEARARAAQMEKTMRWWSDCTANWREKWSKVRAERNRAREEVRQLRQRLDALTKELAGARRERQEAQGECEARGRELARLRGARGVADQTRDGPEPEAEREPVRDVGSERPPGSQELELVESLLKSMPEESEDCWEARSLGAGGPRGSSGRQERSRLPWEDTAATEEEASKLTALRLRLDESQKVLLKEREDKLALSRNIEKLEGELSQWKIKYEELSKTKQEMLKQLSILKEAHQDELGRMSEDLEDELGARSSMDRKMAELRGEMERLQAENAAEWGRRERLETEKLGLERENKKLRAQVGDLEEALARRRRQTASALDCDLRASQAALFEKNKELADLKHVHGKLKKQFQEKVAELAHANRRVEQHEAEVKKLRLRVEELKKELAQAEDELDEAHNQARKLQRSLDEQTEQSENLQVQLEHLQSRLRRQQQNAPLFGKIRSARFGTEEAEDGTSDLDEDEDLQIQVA"}, "[4]": {"target": "T4, glycogen phosphorylase L, transcript variant 1 (human, UniProt P06737 2-847)", "T4 construct": "on protein array; also called PYGL", "T4 sequence": "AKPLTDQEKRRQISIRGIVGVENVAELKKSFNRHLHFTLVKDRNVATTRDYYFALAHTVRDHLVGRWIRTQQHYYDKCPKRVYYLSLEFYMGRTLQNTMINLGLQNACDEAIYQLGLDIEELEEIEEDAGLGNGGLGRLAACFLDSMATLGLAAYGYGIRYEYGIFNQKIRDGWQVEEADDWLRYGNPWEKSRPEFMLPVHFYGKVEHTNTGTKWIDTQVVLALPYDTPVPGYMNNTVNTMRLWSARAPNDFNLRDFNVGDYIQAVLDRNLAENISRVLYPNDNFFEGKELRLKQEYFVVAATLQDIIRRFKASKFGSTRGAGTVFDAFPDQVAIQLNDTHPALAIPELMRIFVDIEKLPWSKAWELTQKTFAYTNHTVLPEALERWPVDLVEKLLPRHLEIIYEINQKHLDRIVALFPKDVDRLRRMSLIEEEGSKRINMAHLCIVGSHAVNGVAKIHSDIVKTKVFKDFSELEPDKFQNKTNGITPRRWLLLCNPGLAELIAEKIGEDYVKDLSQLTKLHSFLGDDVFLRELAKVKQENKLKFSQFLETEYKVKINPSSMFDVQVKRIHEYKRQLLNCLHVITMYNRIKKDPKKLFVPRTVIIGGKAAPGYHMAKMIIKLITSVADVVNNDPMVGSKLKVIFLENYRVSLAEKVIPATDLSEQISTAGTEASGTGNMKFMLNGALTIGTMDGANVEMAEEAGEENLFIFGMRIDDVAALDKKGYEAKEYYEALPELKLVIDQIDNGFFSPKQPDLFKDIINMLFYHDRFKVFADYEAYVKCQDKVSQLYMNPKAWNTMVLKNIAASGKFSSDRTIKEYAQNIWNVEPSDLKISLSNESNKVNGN"}, "Reticulocalbin 3": {"target": "T5, Reticulocalbin 3 (human, UniProt Q96D15 21-328)", "T5 construct": "on protein array; also called RCN3", "T5 sequence": "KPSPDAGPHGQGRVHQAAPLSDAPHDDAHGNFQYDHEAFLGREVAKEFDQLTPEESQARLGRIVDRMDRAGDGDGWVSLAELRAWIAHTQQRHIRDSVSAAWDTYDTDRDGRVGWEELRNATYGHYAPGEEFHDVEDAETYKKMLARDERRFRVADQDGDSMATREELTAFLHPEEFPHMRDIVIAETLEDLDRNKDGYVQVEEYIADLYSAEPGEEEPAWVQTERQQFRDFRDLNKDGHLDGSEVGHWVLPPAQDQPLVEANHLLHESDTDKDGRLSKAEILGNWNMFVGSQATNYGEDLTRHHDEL"}, "[5]": {"target": "T6, synaptotagmin 12, transcript variant X4 (human, UniProt Q8IV01 1-421)", "T6 construct": "on protein array; also called SYT12", "T6 sequence": "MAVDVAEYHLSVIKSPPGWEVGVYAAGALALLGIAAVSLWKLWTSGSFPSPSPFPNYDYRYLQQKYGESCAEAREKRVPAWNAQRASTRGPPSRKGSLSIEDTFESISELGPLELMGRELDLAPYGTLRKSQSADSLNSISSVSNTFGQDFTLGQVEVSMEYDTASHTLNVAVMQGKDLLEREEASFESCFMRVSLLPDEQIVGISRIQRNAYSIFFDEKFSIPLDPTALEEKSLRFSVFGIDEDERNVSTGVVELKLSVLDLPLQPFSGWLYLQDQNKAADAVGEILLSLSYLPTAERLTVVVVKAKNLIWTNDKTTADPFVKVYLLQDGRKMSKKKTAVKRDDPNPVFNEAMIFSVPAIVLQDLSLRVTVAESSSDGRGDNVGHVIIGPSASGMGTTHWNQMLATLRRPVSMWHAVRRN"}, "[6]": {"target": "T7, RAD1 checkpoint DNA exonuclease, transcript variant 1 (human, UniProt O60671 1-282)", "T7 construct": "on protein array", "T7 sequence": "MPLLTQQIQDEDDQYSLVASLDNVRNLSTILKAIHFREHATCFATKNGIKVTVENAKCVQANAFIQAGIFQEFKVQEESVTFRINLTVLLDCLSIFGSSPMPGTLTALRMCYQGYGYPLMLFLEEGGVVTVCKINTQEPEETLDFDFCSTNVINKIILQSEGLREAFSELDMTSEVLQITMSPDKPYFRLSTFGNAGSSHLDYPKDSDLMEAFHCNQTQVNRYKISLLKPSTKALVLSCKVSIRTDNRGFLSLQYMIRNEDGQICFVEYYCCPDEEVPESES"}, "[7]": {"target": "T8, Microtubule associated scaffold protein 1 (human, UniProt Q9ULD2 875-1270)", "T8 construct": "on protein array; also called MTUS1", "T8 sequence": "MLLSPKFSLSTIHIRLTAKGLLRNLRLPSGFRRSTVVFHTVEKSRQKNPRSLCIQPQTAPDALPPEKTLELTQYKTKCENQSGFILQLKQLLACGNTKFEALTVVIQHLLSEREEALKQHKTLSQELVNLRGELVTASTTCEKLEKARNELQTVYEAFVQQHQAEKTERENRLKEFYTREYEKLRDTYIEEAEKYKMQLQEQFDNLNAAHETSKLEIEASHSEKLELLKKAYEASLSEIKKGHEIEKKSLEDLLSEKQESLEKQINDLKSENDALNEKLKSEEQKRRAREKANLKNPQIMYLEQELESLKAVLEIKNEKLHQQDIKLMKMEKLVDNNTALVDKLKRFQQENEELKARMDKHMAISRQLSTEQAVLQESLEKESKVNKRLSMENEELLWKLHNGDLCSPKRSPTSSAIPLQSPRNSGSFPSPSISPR"}, "[8]": {"target": "T9, CDP-diacylglycerol synthase 1 (human, UniProt Q92903 1-461)", "T9 construct": "on protein array; also called CDS1", "T9 sequence": "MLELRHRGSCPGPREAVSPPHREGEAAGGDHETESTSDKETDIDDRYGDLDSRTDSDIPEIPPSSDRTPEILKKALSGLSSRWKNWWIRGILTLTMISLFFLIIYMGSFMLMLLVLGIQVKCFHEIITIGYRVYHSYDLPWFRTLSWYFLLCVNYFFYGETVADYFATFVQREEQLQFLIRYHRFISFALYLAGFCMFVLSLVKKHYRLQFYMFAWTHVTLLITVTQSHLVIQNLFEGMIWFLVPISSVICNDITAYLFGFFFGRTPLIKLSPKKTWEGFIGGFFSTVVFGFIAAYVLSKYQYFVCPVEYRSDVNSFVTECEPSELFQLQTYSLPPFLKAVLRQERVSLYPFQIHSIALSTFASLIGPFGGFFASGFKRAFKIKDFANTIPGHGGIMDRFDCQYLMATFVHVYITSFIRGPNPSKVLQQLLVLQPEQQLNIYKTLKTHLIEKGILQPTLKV"}, "[9]": {"target": "T10, dynein axonemal assembly factor 3, transcript variant 3 (human, UniProt Q8N9W5 1-541)", "T10 construct": "on protein array; also called DNAAF3", "T10 sequence": "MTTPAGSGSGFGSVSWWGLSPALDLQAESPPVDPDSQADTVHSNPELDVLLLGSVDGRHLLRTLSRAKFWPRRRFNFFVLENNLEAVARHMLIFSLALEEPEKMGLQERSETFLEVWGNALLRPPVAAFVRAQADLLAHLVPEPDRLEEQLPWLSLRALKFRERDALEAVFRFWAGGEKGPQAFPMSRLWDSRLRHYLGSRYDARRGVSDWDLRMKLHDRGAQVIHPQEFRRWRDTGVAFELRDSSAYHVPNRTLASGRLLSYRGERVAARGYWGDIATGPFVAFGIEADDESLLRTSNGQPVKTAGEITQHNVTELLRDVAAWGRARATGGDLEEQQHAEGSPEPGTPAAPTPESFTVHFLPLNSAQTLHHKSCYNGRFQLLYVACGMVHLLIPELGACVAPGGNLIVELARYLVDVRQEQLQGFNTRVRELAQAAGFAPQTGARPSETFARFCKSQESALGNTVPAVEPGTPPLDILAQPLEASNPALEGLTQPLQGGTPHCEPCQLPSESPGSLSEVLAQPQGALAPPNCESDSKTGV"}, "[10]": {"target": "aldo-keto reductase family 1 member B, transcript variant 1 (human, UniProt P15121 2-316)"}}, "data": [{"binder": "B1", "values": [{"measurement": "binding result", "setting": "[1]", "value": "binds"}]}, {"binder": "B2", "values": [{"measurement": "binding result", "setting": "[2]", "value": "binds"}, {"measurement": "binding result", "setting": "[3]", "value": "binds"}]}, {"binder": "B3", "values": [{"measurement": "binding result", "setting": "[4]", "value": "binds"}, {"measurement": "binding result", "setting": "Reticulocalbin 3", "value": "binds"}, {"measurement": "binding result", "setting": "[5]", "value": "binds"}]}, {"binder": "B4", "values": [{"measurement": "binding result", "setting": "[6]", "value": "binds"}, {"measurement": "binding result", "setting": "[7]", "value": "binds"}]}, {"binder": "B5", "values": [{"measurement": "binding result", "setting": "[8]", "value": "binds"}, {"measurement": "binding result", "setting": "[9]", "value": "binds"}]}, {"binder": "B6", "values": [{"measurement": "binding result", "setting": "[10]", "value": "binds"}]}]}
